The source of these data is the DeepSol protein solubility set.

This series can be described thus: soluble on expression in E. coli; label from the status in PepcDB or PDB records.
On to “MRSAFRVIRTVREKHACTQCDAIVQAPAPSRPIERGIAGPGLLARVLTSKYAEHTPLYRQSEIYGRQGVELSRSLLSGWVDACCRQLSPLEEALHGYVLTDGKLHADDTPVPVLLPGNKKTKTGRLWTYVRDDRNAGSTLAPAVWFAYSPDRKGIHPQTHLAGFSGVLQADAYAGFNELYRDGRITEAACWAHARRKIHDVHVRTPSALTEEALKRIGELYAIEAEIRGMTAEQRLAERQLKTKPLLKSLESWLREKMKTLSRHSELAKAFAYALNQWPALTYYADDGWAEADNNIAENALRMVSLGRKNYLFFGSDHGGERGALLYSLIGTCKLNGVEPESYLRYVLDVIADWPINRVGELLPWRVALPTE”, for which the “soluble on expression in E. coli” value was “not soluble”.
Turning to “GMDELELRIRKAEKLVQDAKKEFEMGLYERCCSTAYYAMFHAAKAMLLGYGRDSKTHRGTIYLIWECREELGLSDDDCSKLSRAFDLREESDYGIYKEVSKDLAIKILKDAEIFVQKAKNAVNKNR”, the “soluble on expression in E. coli” value is recorded as “soluble”.
The value for “METKSLICTACPRGCRLSVKIENENISVSGNKCPKGLSYGKTEAVCPMRILTSTIASSVEGFPRLPVKTSVEVPLKNFSEYMHLIRKLKADSSKMPGDIIVKNFAESGADLIAAGGSLLEHHHHHH” was “soluble”; that for “NGNPIPMGYSQAVENNVQITNFALFSAAAIGVELCLFDEQNQETRLPMVRTENVWHLAVTGVKTGTEYAFRIHGEFANPQKLILDPYAKAVNGKPDLSSEESRSWFLLSDNRDNAHLAPRAVVIS” was “not soluble”.
The value for “MLMRPLDLTEKRGKKVTIYFEGKELEAYEGEKLPVALLANEIYWLTTSNEGRKRGAFTFGPVPMTVNGVKGLEARRIKVKDGMKIERQGYYDFHEEPVVEPGEIERVVVDVAIIGGGPAGIGAALELQQYLTVALIEERGWLGGDMWLKGIKQEGFNKDSRKVVEELVGKLNENTKIYLETSALGVFDKGEYFLVPVVRGDKLIEILAKRVVLATGAIDSTMLFENNDMPGVFRRDFALEVMNVWEVAPGRKVAVTGSKADEVIQELERWGIDYVHIPNVKRVEGNEKVERVIDMNNHEYKVDALIFADGRRPDINPITQAGGKLRFRRGYYSPVLDEYHRIKDGIYVAGSAVSIKPHYANYLEGKLVGAYILKEFGYDAQPCIYEEKLREYEPESLSIPRIPLDKFNLEDVQICGCDVSLKKVDEVIRKGITDLQIIKRLTHLAMGFCQGRYCLFNGAVVVSQRTGKKLSEIDLPVARSPIKNVKMGILARR” was “soluble”; that for “MRLLTIGSGLRGAKVAEILHKKGVKVNRVPLFKCFAVLNNEEHLRSISIGDDRKYYVHGLKGDVSGFVNQITSLYEIFEGSLVLTSLEDDFGYITSLELCQRLRKVTEDAVISLAIVPQLDTSSIGEIKKRIRSLRDVSDILILFEGEVGVERKILEVMNLVALAGEIDLKKRVAGEVVVDTSDVFNALKSDGFAIAGLAERKIPFNFKNLIFRRNSELKAVRTRRMIELTEEALQNVSINGDVENAKSALLLFAGKPDELTMEGLFSSIAMIENINRDIVVRYGDYPIPGSRKVSAVLIFSGIRKFRFA” was “soluble”; that for “MAHHHHHHMDVLGTCTALVATLQEPQEDIQSRDHYELVLLDGPSLPIVGVSSTGGLLAATSAASAAAAATAAVAAADDTMSSTEAAKESASDSDAAVTRVKTTIDLHQAFARFQRTDSAENYLLDVVYVGDCTMMLIRNGRVCYVTEEQAHQLDYPYQLGTGSNDTPKDGVRLLIPVEKGDIVVMGTDGIFDNLYPHRIVELIWPHLERVFSQHGYLQALGGAETAKAPANAVSYVKNRNLRTLLDDIMAALDMGANAVMADAMTVSRDVRCDSPYASKCIENGALFEGGKPDDMTLLISVIGESDDGEPSEQFSGSETAFPLPYRDWP” was “not soluble”.
With “MGSDKIHHHHHHMKNTVAFKTITGRDAVYKAYDAFLGNMGIPHEEVNVDTRFGKAFVIAAGKKDAPVLVLLHGSGINSVMWIKDMEKYSEHYRVYAVDLQGEPGKSDGKQLSFEGSDFDNWLHDVFAGLSVEKASIAGISLGAWLALKFAIANPQMVDKLVLLCPAGVGPQKTSFAYVSLFHMLLWGEKGVERLFRKVNGGKPIPQEIMDYQKLLGNNFNFRREQVPLFSDAELTQLTIPSILFVGQKDVMFHSLKTAQRYRNLVPDAKVIVLREAGHTLIGLVDDILEFLQN” the entry was “not soluble”; with “MEKILIFGHQNPDTDTICSAIAYADLKNKLGFNAEPVRLGQVNGETQYALDYFKQESPRLVETAANEVNGVILVDHNERQQSIKDIEEVQVLEVIDHHRIANFETAEPLYYRAEPVGCTATILNKMYKENNVKIEKEIAGLMLSAIISDSLLFKSPTCTDQDVAAAKELAEIAGVDAEEYGLNMLKAGADLSKKTVEELISLDAKEFTLGSKKVEIAQVNTVDIEDVKKRQAELEAVISKVVAEKNLDLFLLVITDILENDSLALAIGNEAAKVEKAFNVTLENNTALLKGVVSRKKQVVPVLTDAMAE”, “soluble”.
On to “MIDTTVFQNKTAVYYTLGCKLNFSETSTIGKILREAGVRTARKGEKADICVVNTCSVTEMADKKCRQAIHRLVKQHPGAFVVVTGCYAQLKPGDVAKIKGVDVVLGAEQKGDLLQYLGDLHKHEEGEAFTTTTKDIRSFSPSCSRGDRTRFFLKVQDGCDYFCSYCTIPFARGRSRNGTVASMVEQARQAAAEGGKEIVLTGVNIGDFGKTTGETFFDLVKALDQVEGIERYRISSIEPNLLTDEIIEFVSRSRRFMPHFHIPLQSGCDEVLKLMRRRYDTALFASKVKKIKEVMPDAFIGVDVIVGTRGETEEYFEQAYQFISGLDVTQLHVFSYSERPGTQALKIDYVVSPEEKHQRSQRLLTLSDEKTRAFYTRHIGQTMQVLMEKSKAGTPMHGFTANYIRVEVENDESLDNQMINVRLGEFNEDMTALKGTILMNYEVLEHHHHHH”, for which the “soluble on expression in E. coli” value was “soluble”.
The value for “MAKNFAEQIVESLENQGVKRIYGLVGDSLNPIVDAVRTSNIEWIHVRNEETAAFAAEAESLLTGELAVCAASCGPGNTHLVQGLYDANRNGAKVLAIASHIPSRQIGSHFFQETHPEALFAECSGYCEMANSALQGEVILHHAIQSTMAGKGVSVLVLPGDVTMQDVEDDTFTGSRISNARPIMYPDPAEAADLVKAINEAKTVTLFCGAGVRYARKEVLELAEKIKAPIGHALGGKMYIQYDNPFDVGMSGLLGYGACHDASNDADLLILLGTDFPYNDFLPRKNVAQIDIDGSHIGRRTRISHPVVGDVAATISNILPHIEEKTDRSFLDRMLKKHHRKLNDVIEAYTSGVEKHTPIHPEFVANIIDEIAADDAVFTIDTGMCNVWGARYITPNGKREMIGSFRHGTMANALPQAIGASAANPRRQVVTFSGDGGLGMLMGELLTVKLHNLPIKTVVFNNSSLGMVKLEMLVQGMPEHETDHEHVDFDAIAAAVGIEHIKITDPAKARQQLQAAFDYDGPVLIDIITDPNALSIPPNITMDMLMGFSRAATRTVFGGGVGHMVDMAKSNLRNIPKP” was “not soluble”.
As to “MSLSKVRISSKIEDCEEIINQYGGNYLSHLIYSGDKQFFTNENKTAFLMYRYKASSLVVLGDPLGDENAFDELLEAFYNYAEYLGYDVIFYQVTDQHMPLYHNFGNQFFKLGEEAIIDLTQFSTSGKKRRGFRATLNKFDELNISFEIIEPPFSTEFINELQHVSDLWLDNRQEMHFSVGEFNEEYLSKAPIGVMRNEENEVIAFCSLMPTYFNDAISVDLIRWLPELDLPLMDGLYLHMLLWSKEQGYTKFNMGMATLSNVGQLHYSYLRERLAGRVFEHFNGLYRFQGLRRYKSKYNPNWEPRFLVYRKDNSLWESLSKVMRVIRHKEGHHHHHH”, the “soluble on expression in E. coli” value is listed as “soluble”.
Regarding “MGYDVTRFQGDVDEDLICPICSGVLEEPVQAPHCEHAFCNACITQWFSQQQTCPVDRSVVTVAHLRPVPRIMRNMLSKLQIACDNAVFGCSAVVRLDNLMSHLSDCEHNPKRPVTCEQGCGLEMPKDELPNHNCIKHLRSVVQQQQSRIAELEKTSAEHKHQLAEQKRDIQLLKAYMRAIRSVNPNLQNLEETIEYNEILEWVNSLQPARVTRWGGMISTPDAVLQAVIKRSLVESGCPASIVNELIENAHERSWPQGLATLETRQMNRRYYENYVAERIPGKQAVVVMACENQHMGDDMVQEPGLVMIFAHGVEEI”, the “soluble on expression in E. coli” value is “soluble”.
As to “MGSDKIHHHHHHMNKIFKCFPDGKFKVLTMSYDDGKLSDKKLVSIFNKYGIKGTFHINSGLIGSYNRLTKAEIKTLYSGHEVSAHTLTHPTIARCPMEQVTKEILMDRENLEEIVGYPVRGLSYPNGSYNDSIRNLLKYLGIEYSRIVGNSDSFDLPSDFTAWKATCHHNHNLMEHAKEFVFLYKKQYLYMMYVWGHSYEFDRDNNWHLIENFCSYISNKDDIWYATNIEIVDYKNVLDNLKFSAKSDFVYNPSAKSAWITVNDEIVEIKGGTQLKLS”, the “soluble on expression in E. coli” value is “not soluble”.
The value for “MAHHHHHHMPGSLKVQTGRGDARKTVKKTVLSKGNITRSDEPAGVADSAASASVAKSSSTTASTLTIAVALSMCEQERAVEAVKETIPASASREVLRKDPIYRIMHALPRSDVLEVVRSRFEKPHCERAAAYFDLSYMKNPLRHLRLQLGCDGPTGIYLFFRRIAAHRHTLRVVDFSRNRLSADDAVLICNTLGLGVAGDVATAPGTTKASSAGAVADSTVSTAVGASAQPASSLELLDLSYNAKLGNDGAVHVVRAVRRLPSIRAVILKSVGIDDAGAVAMADVVRRWPAPALCANSAAPHALLRPVTASATKFYLNLNENYIGARGTDVLGKGLPHYVSLTLAKQQPDPARDRKRSRDDDGAACR” was “not soluble”; that for “HSSGLVPRGSHMAIIFPGQGAQKVGMAQDLFNNNDQATEILTSAAKTLDFDILETMFTDEEGKLGETENTQPALLTHSSALLAALKNLNPDFTMGHSLGEYSSLVAADVLSFEDAVKIVRKRGQLMAQAFPTGVGSMAAVLGLDFDKVDEICKSLSSDDKIIEPANINCPGQIVVSGHKALIDELVEKGKSLGAKRVMPLAVSGPFHSSLMKVIEEDFSSYINQFEWRDAKFPVVQNVNAQGETDKEVIKSNMVKQLYSPVQFINSTEWLIDQGVDHFIEIGPGKVLSGLIKKINRDVKLTSIQTLEDVKGWNEND” was “soluble”; that for “MKQTVAAYIAKTLESAGVKRIWGVTGDSLNGLSDSLNRMGTIEWMSTRHEEVAAFAAGAEAQLSGELAVCAGSCGPGNLHLINGLFDCHRNHVPVLAIAAHIPSSEIGSGYFQETHPQELFRECSHYCELVSSPEQIPQVLAIAMRKAVLNRGVSVVVLPGDVALKPAPEGATMHWYHAPQPVVTPEEEELRKLAQLLRYSSNIALMCGSGCAGAHKELVEFAGKIKAPIVHALRGKEHVEYDNPYDVGMTGLIGFSSGFHTMMNADTLVLLGTQFPYRAFYPTDAKIIQIDINPASIGAHSKVDMALVGDIKSTLRALLPLVEEKADRKFLDKALEDYRDARKGLDDLAKPSEKAIHPQYLAQQISHFAADDAIFTCDVGTPTVWAARYLKMNGKRRLLGSFNHGSMANAMPQALGAQATEPERQVVAMCGDGGFSMLMGDFLSVVQMKLPVKIVVFNNSVLGFVAMEMKAGGYLTDGTELHDTNFARIAEACGITGIRVEKASEVDEALQRAFSIDGPVLVDVVVAKEELAIPPQIKLEQAKGFSLYMLRAIISGRGDEVIELAKTNWLR” was “soluble”.
Take “MHTAEFLETEPTEISSVLAGGYNHPLLRQWQSERQLTKNMLIFPLFISDNPDDFTEIDSLPNINRIGVNRLKDYLKPLVAKGLRSVILFGVPLIPGTKDPVGTAADDPAGPVIQGIKFIREYFPELYIICDVCLCEYTSHGHCGVLYDDGTINRERSVSRLAAVAVNYAKAGAHCVAPSDMIDGRIRDIKRGLINANLAHKTFVLSYAAKFSGNLYGPFRDAACSAPSNGDRKCYQLPPAGRGLARRALERDMSEGADGIIVKPSTFYLDIMRDASEICKDLPICAYHVSGEYAMLHAAAEKGVVDLKTIAFESHQGFLRAGARLIITYLAPEFLDWLDEEN”: the “soluble on expression in E. coli” value is “soluble”.
